In patent US20120009171A1 (SHIRE HUMAN GENETIC THERAPIES, published 2012):

Molecular target: the molecule itself
Assay: SEC-HPLC, mobile phase 100 mM sodium citrate pH 5.5 (self-association)
Experimental: Waters HPLC systems were used for size exclusion and reversed phase HPLC analyses. For initial SEC-HPLC analysis, 50 μg of rhASA was injected on to an Agilent Zorbax GF-250 column (4.6 mm×250 mm) and run isocratically at 0.24 mL/min using a mobile phase of 100 mM sodium citrate pH 5.5 (octomer detection) with a detection wavelength of 280 nm. The analyses were repeated using mobile phase conditions of 100 mM sodium citrate, pH 7.0 (dimer detection).
Analysis by size exclusion HPLC detected some degradation for the 2 week thermal stressed sample formulated in 5 mM sodium phosphate with 154 mM NaCl at pH 7.0. The degradation was more evident by SEC-HPLC using a pH 5.5 mobile phase condition which induces association of rhASA to an octamer.

B1: recombinant human arylsulfatase A (rhASA) (enzyme)
chain: RPPNIVLIFADDLGYGDLGCYGHPSSTTPNLDQLAAGGLRFTDFYVPVSLCTPSRAALLTGRLPVRMGMYPGVLVPSSRGGLPLEEVTVAEVLAARGYLTGMAGKWHLGVGPEGAFLPPHQGFHRFLGIPYSHDQGPCQNLTCFPPATPCDGGCDQGLVPIPLLANLSVEAQPPWLPGLEARYMAFAHDLMADAQRQDRPFFLYYASHHTHYPQFSGQSFAERSGRGPFGDSLMELDAAVGTLMTAIGDLGLLEETLVIFTADNGPETMRMSRGGCSGLLRCGKGTTYEGGVREPALAFWPGHIAPGVTHELASSLDLLPTLAALAGAPLPNVTLDGFDLSPLLLGTGKSPRQSLFFYPSYPDEVRGVFAVRTGKYKAHFFTQGSAHSDTTADPACHASSSLTAHEPPLLYDLSKDPGENYNLLGGVAGATPEVLQALKQLQLLKAQLDAAVTFGPSQVARGEDPALQICCHPGCTPRPACCHCPDPHA
notes: By SEC-HPLC it associates to an octamer at pH 5.5 and is seen as a dimer at pH 7.0; also called recombinantly-prepared human arylsulfatase A; human ASA
- binding result: binds
